Measured values published in US8591908B2, “Immunogen for preparation of therapeutic vaccines or drugs for treatment of hepatitis B and the producing method and use thereof” (Institute of Immunology, PLA, priority 2002, dated 2013).
Ends that are not written are not given here. * marks the point of attachment. linolenoyl = CH3CH2CH=CHCH2CH=CH(CH2)CH=CH(CH2)7CO, CC/C=C\C/C=C\C/C=C\CCCCCCCC(=O)*; Palmitoyl = CCCCCCCCCCCCCCCC(=O)*

Experiments:
[1] = Encapsulation rate of liposome (RP-HPLC); type: physicochemical; details: L9(3^4) orthogonal test of lipid components and liposome forming conditions; 6 mmol/L vitamin E
Method: Liposome was prepared by a double emulsion method. The lipid components were dissolved in ethyl ether solution, mixed with the concentrate of the present compound to form an emulsion (W/O), then poured into phosphate buffer (PB) or water under a controlled temperature and stirred to form a further emulsion (W/O/W), and liposome was gradually formed as ethyl ether gradually volatilized. The product in free form and aggregate and precipitate in the liquid was removed by concentration in ultrafiltration apparatus and dialysis (the dialysis must be 200 folds or higher) and by filtration via a 10 μm microporous filter. Aliquots were removed for reversed phase high performance liquid chromatography (RP-HPLC) to determine the encapsulation amount, and the encapsulation rate was calculated by comparing to the incorporated amount. L9(3^4) orthogonal table was used in the experimental design.
Based on the formulation and conditions determined by said orthogonal test, the effects of the concentration of the immunogen solution on the encapsulation rate of the liposome were compared. […]

[2] = Size shrinkage of liposome after lyophilization; type: physicochemical; details: 5% mannitol/10 mmol/L phosphate buffer
Source text: In the Table 16, all of the formulations 1-11 contained a buffer of 5% mannitol/10 mmol/L phosphate(KH2PO4/Na2HPO4 was 60/40)
When the addition amount of the concentrated liposome solution was 25-50% (v/v) of the semifinished product liquor for subpackage, addition of 1% human serum albumin as excipient will result in better lyophilization effects. Thus, when the volume of the concentrated liposome solution was equal to the volume of the emulsion (W/O), the volume of the concentrated liposome solution was determined as 37.5% (v/v) of the volume of the product liquor for subpackage, i.e., an average level of the amount of the concentrated liposome solution. In this case, the concentrations of the adjuvants in the product liquor for subpackage should meet the requirements as set forth in Table 16-4. The volume of subpackage should be 1 ml and meet the requirements for the formulation of lyophilized liposome injection. In practice, the volume of the concentrated liposome solution usually is greater than the volume of emulsion (W/O), so the volume of the product liquor for subpackage may be increased. Thus, the actual subpackage volume is calculated according to the following formula.

[3] = test system: HBV-DNA, HBeAg and HBsAg; assay: FIG. 5: virus inhibition test with PBMC of HBV carrier and hepatitis patients; type: cell-based, hepatitis B virus; details: supernatant, with increase of co-culture time
Source text: FIG. 5 indicated the antiviral effects of the immunogen of the present invention. Peripheral blood mononuclear lymphocytes were separately isolated from fresh peripheral bloods of a HLA-A2+HBV carrier, a patient suffering from acute hepatitis, and a patient suffering from chronic hepatitis, and were subjected to virus inhibition tests to measure the copy numbers of HBV-DNA (A) and secretion levels of HBeAg and HBsAg in the supernatant (B, C).

[4] = test system: HBV DNA in HBV transgenic mice; assay: HBV transgenic mice: HBV DNA in serum, quantitative PCR; type: in vivo; details: 10th, 20th, 30th day after three immunizations, 10-1000 U/mouse
Method: (§1) The levels of cytokines such as IFN-γ, IL-4, etc. in supernatant were measured by the ELISA method, and the activity of the test drug (CH3(CH2)14COKSSQYIKANSKFIGITEAAASIVSPFIPLLGGGDPRVRGLYFPA) (SEQ ID NO:5) for inducing the differentiation of T cells into Th1/Th2 type was analyzed. […] The expression frequency of IFN-γ secreting cells in peripheral blood lymphocytes was measured by the ELI-SPOT method in said supernatant. […] On the 10th, 20th and 30th day after the end of the three immunizations, bloods were removed, serum isolated, and the contents of HBsAg and HBV-DNA in the serum were separately measured by the ELISA method and quantitative PCR method.

[5] = test system: HBV-DNA transgenic mice; assay: HBV transgenic mice: cytokines of spleen lymphocytes, ELISA (Th1/Th2); type: in vivo; details: 10, 100, 1000 U/mouse s.c., day 30; spleen lymphocytes restimulated with 10 ng/ml for 3 days
Method: as §1
Then supernatants were collected and the secretion levels of cytokines such as TNF-α, IFN-γ, IL-4, etc. in supernatants were measured by ELISA, and the activity of the test drug for inducing the conversion of Th1/Th2 type from T cells in subjects was analyzed.

[6] = test system: HBV-DNA transgenic mice; assay: HBV transgenic mice: IFN-γ secreting cells, ELI-SPOT; type: in vivo; details: 30th day after end of immunization
Method: as §1
The expression frequency of IFN-γ secreting cells in peripheral blood lymphocytes was measured by the ELI-SPOT method.

[7] = test system: hepatitis B surface antigen (HBsAg) in HBV transgenic mice; assay: HBV transgenic mice: HBsAg in serum, ELISA; type: in vivo; details: 10th, 20th, 30th day after three immunizations, 10-1000 U/mouse
Method: as §1

[8] = test system: enzyme-labeled antibody; assay: Potency/specific activity of stock solution or semifinished product, enzyme-linked plate; type: binding; details: stock solution after reversed phase chromatography; batches 1-3 and x ± Sx
Source text: Chromatography column AP5 20/275 POROS 50 R1 was used in the batch production. After peptide-resin was cleaved and preliminarily purified, the collected εPA44 sample was divided into 7 parts for high purification, and the effects and reproducibility for batch purification of εPA44 stock solution were furthered studied. […] The collected elution peak fractions of εPA44 were pooled and mixed homogenously, aliquots were removed for analysis. If the sample met the set standards, it was used as the stock solution and was stored at −20° C. until use. The output, yield and specific activity of the product were calculated based on the measured data.
The semifinished product to be tested was diluted to a concentration within the measurable range of the potency determination. An enzyme-linked plate( ? ) was coated, blocked, bound by enzyme-labeled antibody, and developed. The absorbance at 450 nm (A450 nm) was detected by an enzyme-labeling device, and compared to the reference of the product. The potency of εPA44 in the extract of the sample was determined, and the specific activity of the semifinished product ( ? ) was calculated.
The reference of the product was 10-fold diluted with 50% ethanol, and then was two-fold serially diluted. 100 μl dilutions were separately added to the wells on the 96-well enzyme-linket immunosorbent assay plate, each well was repeated in triplicate. Coating was carried out in refrigerator at 4° C. for 20-24 hours. The stock solution of εPA44 was diluted and coated similarly to the reference. 100 μl of 50% ethanol was added to negative control wells. After the coating was completed, 200 μl 1% calf serum was added to each well, and blocked in refrigerator at 4° C. for 2 hours. The enzyme-linket immunosorbent assay plate was dried in air, 80 μl enzyme-labeled antibody was added to each well and incubated at 37° C. for 40 minutes. The plate was washed with wash solution for 4 times and dried in air, then 50 μl of substrate solution A and 50 μl of substrate solution B were added to each well and developed at 37° C. for 15 minutes under protection from light. Then 50 μl of stop solution was added to each well. A450 nm values were detected on 550 type enzyme-linket immunosorbent assay detector. The median dilution times of the reference and the samples were calculated by program or linear regression method based on the median effect value of the reference of εPA44 (median maximum absorbance), and the potency of the test sample and the specific activity of the product were calculated according to the following formulas.

[9] = test system: T2 cells, E6 cells and HepG2.2.15 cells; assay: HBV-specific CTL from human PBMCs, 51Cr release cytotoxicity test; type: cell-based
Method: Human PBMCs were divided into groups and cultured in RPMI1640 culture media (containing 10% calf serum, and 100μ/ml penicillin-streptomycin) (10^6/ml, 24-well culture plates) in vitro for one day. After they recovered the original growth state, IL-2(30-IU/ml) and test drug (0.1 μg/ml, 1 μg/ml) were separately added. […] 3 days after the last stimulation, antigen-specific effective CTL cells were obtained. Cytotoxicity was tested by standard ^51Cr release tests and compared. Target cells (T2 cells and HepG2.2.1.5 cells pre-coated with peptide) were grown to a good state. 10 hours before the cells were used, 10 μg/ml test drug was added to the culture, and the cells were incubated. 10^6 Target cells were placed in 1 ml RPMI1640 media (containing 20% calf serum), and 100 μCi ^51Cr (NEN) was added for labelling in water-bath at 37° C. for 2 hours. The labelled target cells were washed with sterilized PBS buffer for 3 times under centrifugation (500 rpm/5 min), and were plated on 96-well V-bottom culture plates in an amount of 10^4 target cells/50 μl/well, each well was treated in triplicate. […] The minimum release value was 30% lower than the maximum release value. The formula for calculating ^51Cr release percentage was: [(CPMsample−CPMminimum release)/(CPMmaximum release−CMPminimum release)]×100%.

[10] = test system: peripheral blood mononuclear lymphocytes of HLA-A2+ healthy person; details: culture supernatant, 24 h after last stimulation

1 (Palmitoyl-KSSQYIKANSKFIGITEAAAFLPSDFFPSVGGGDPRVRGLYFPA) [compound 1]
Encapsulation rate [1]: 93.16%
degree of size shrinkage of the liposome after lyophilization [2]: ++++

3 (KSSQYIKANSKFIGITEGGGDPRVRGLYFPA; not fully specified (N-terminus); printed as CH3CH2CH═CHCH2CH═CH(CH2)7CO7KSSQYIKANSKFIGITEGGGDPRVRGLYFPA; also: N-terminal acyl on K unclear: CH3(CH2)7CH=CH(CH2)-CO or CH3CH2CH=CHCH2CH=CH(CH2)7CO) [compound 3]
Encapsulation rate [1]: 44.92%
degree of size shrinkage of the liposome after lyophilization [2]: +++

4 (Palmitoyl-KSSQYIKANSKFIGITEAAAFLPSDFFPSVGGGCTKPTDGNCT; cysteine pairing not given here) [compound 4]
Encapsulation rate [1]: 69.48%
degree of size shrinkage of the liposome after lyophilization [2]: ++

5 (Palmitoyl-KSSQYIKANSKFIGITEAAASIVSPFIPLLGGGDPRVRGLYFPA) [compound 5]
Encapsulation rate [1]: 97.27%
degree of size shrinkage of the liposome after lyophilization [2]: +++

6 (QYIKANSKFIGITE; Th cell epitope from tetanus toxoid or variant species thereof) [compound 6]
Encapsulation rate [1]: 79.26%
degree of size shrinkage of the liposome after lyophilization [2]: +++

7 (PADRE; Th cell epitope from tetanus toxoid or variant species thereof) [compound 7]
Encapsulation rate [1]: 53.75%
degree of size shrinkage of the liposome after lyophilization [2]: −

8 (PLGFFPDH; Hepatitis B virus) [compound 8]
Encapsulation rate [1]: 79.29%
degree of size shrinkage of the liposome after lyophilization [2]: −

9 (MQWNSTALHQALQDP; Hepatitis B virus) [compound 9]
Encapsulation rate [1]: 109.4%
degree of size shrinkage of the liposome after lyophilization [2]: +

10 (SILSKTGDPV; Hepatitis B virus) [compound 10]
degree of size shrinkage of the liposome after lyophilization [2]: +

CH3(CH2)14COKSSQYIKANSKFIGITEAAAFLPSDFFPSVGGGCTKPTDGNCT (Palmitoyl-KSSQYIKANSKFIGITEAAAFLPSDFFPSVGGGCTKPTDGNCT; cysteine pairing not given here) [SEQ ID NO:4]
copy numbers of HBV-DNA [3]: inhibited in an obvious dose-effect dependence relation
secretion level of HBeAg [3]: inhibited in an obvious dose-effect dependence relation
secretion level of HBsAg [3]: inhibited in an obvious dose-effect dependence relation

CH3(CH2)14COKSSQYIKANSKFIGITEAAASIVSPFIPLLGGGDPRVRGLYFPA (Palmitoyl-KSSQYIKANSKFIGITEAAASIVSPFIPLLGGGDPRVRGLYFPA) [SEQ ID NO:5]
HBV-DNA in the serum (copy number, replication level) [4]: obvious decrease
IL-4 secretion [5]: did not exhibit an obvious dose-effect dependence relation
secretion of IFN-γ [5]: strong secretion of IFN-γ
expression frequency of IFN-γ secreting cells in peripheral blood lymphocytes ([6]; 10-1000 U/mouse): increased with the increase of immunogen dose
highest expression frequency of IFN-γ secreting cells ([6]; IFN-α2b at 15000 U/mouse): 3660 IFN-γ secreting cells/10^6 PBMC
HBsAg in the serum [7]: obvious decrease

CH3(CH2)14COKSSYIKANSK FIGITEAAAMQWNSTALHQALQDPGGGDPRVRGLYFPA (Palmitoyl-KSSYIKANSKFIGITEAAAMQWNSTALHQALQDPGGGDPRVRGLYFPA) [SEQ ID NO:72]
Specific activity [8]: 11689.76±1503.57 U/mg

CH3CH2CH═CHCH2CH═CH(CH2)CH═CH(CH2)7COFLPSDFFPSVAAADPRVRGLYFPA (linolenoyl-FLPSDFFPSVAAADPRVRGLYFPA) [SEQ ID NO:54]
specific killing of target cells [9]: specifically kill peptide pre-coated T2 cells, E cells and HepG2.2.15 cells
target cell-specific lysis rate ([9]; PBMCs of healthy human): up to 62.8%

CH3CH2CH═CHCH2CH═CH(CH2)CH═CH(CH2)7COKSSPAREGGGWLSLLVPFVSSSDP RVRGLYFPA [SEQ ID NO:2]
effect of inducing the secretion of IL-4 [10]: not obvious
secretion of IFN-γ [10]: induce the secretion of IFN-γ in a notable dose-effect dependence relation
